The target in data set [1] is T1, polymerase module (Cft1-Pap1-Pfs2-Fip1-Yth1);Mpe1 (Saccharomyces cerevisiae;Saccharomyces …, UniProt Q06632;P29468;P42841;P45976;Q06102;P35728 1-1357;1-568;1-465;1-327;1-208;1-441, |). As to the kind of experiment: size exclusion chromatography; 5 uM polymerase module, 15 uM Mpe1, 10 uM RNA; comigration, later elution; EMSA: SEC 50 buffer (composition not given in material), 50 nM FAM-RNA, 10% native PAGE 1X TBE, room temperature; SEC: Superose 6 Increase 3.2/300 in SEC 50. The conditions noted are these: protein: recombinant;recombinant; tags: untagged (from polymerase module-Mpe1 purification); Pfs2-SII in some preparations;C-terminal SII; copies: 1;1;1;1;1;1; label: 5' 6-FAM; single strand. On the technique in general: Size exclusion chromatography separates by hydrodynamic size, large species first.

The target of data set [2] is polymerase module (Cft1-Pap1-Pfs2-Fip1-Yth1);Mpe1;yPIM peptide of Cft2 (Saccharomyces cerevisiae;Saccharomyces …, UniProt Q06632;P29468;P42841;P45976;Q06102;P35728;Q12102 …, ||). Put plainly: cryo-EM; Zn2+; 2.61 A; Cft2 yPIM peptide; EMSA: SEC 50 buffer (composition not given in material), 50 nM FAM-RNA, 10% native PAGE 1X TBE, room temperature; SEC: Superose 6 Increase 3.2/300 in SEC 50. The conditions noted are these: tags: untagged (from polymerase module-Mpe1 purification); Pfs2-SII in some preparations;C-terminal SII;; copies: 1;1;2;1;1;1;1; single strand; 4 nt modelled.

Data set [3] has as its target T1, polymerase module …. As to the kind of experiment: cryo-EM; Zn2+; 2.66 A; EMSA: SEC 50 buffer (composition not given in material), 50 nM FAM-RNA, 10% native PAGE 1X TBE, room temperature; SEC: Superose 6 Increase 3.2/300 in SEC 50. Conditions: protein: recombinant;recombinant; tags: untagged (from polymerase module-Mpe1 purification); Pfs2-SII in some preparations;C-terminal SII; copies: 1;1;1;1;1;1; single strand; 4 nt modelled. On the technique in general: Mobility shift assays separate free from complexed probe on a gel.

The values below come from article PMC9380774, “Mpe1 senses the binding of pre-mRNA and controls 3′ end processing by CPF” (Molecular Cell, 2022).

Regarding UUUAUAGUUAUGUUAGUAUUAAGAACGUUAUUUAUAUUUCAA (ssRNA) [precleaved CYC1 (pcCYC1), 42 nt], the binding result in data set [1] was “binds”. As for UUUAUAGUUAUGUUAGUAUUAAGAACGUUAUUUAUAUUUCAA (ssRNA) [precleaved CYC1 used for cryo-EM (IDT FAM or T7 version not stated)], the binding result in data set [2] and in data set [3] was “binds” each time.
